The values below come from article PMC5753033, “WH2 and proline‐rich domains of WASP‐family proteins collaborate to accelerate actin filament elongation” (The EMBO Journal, 2017).

This test concerns the target Atto540Q-labeled actin monomers (Acanthamoeba castellanii), Latrunculin B-stabilized (Acanthamoeba castellanii, Atto540Q-NHS at reactive lysine residues). As to the kind of experiment: FRET or BRET; 7.5 nM Alexa488-labeled WAVE1 variant titrated with LatB-stabilized Atto540Q-actin; donor quenching; room temperature; 20 mM HEPES pH 7.0, 100 mM KCl, 1.5 mM MgCl2, 1 mM EGTA, 1 mM ATP; single site binding curve. Particulars: both partners purified.

B1: Alexa488-labeled WAVE1 P_CA (WH2-delete construct) (domain or fragment)
chain: RPHEPPPPPPMHGAGDAKPIPTSISSATGLIENRPQSPATGRTPVFVSPTPPPPPPPLPSALSTSSLRASMTSTPPPPVPPPPPPPATALQAPAVPPPPAPLQIAPGVLHPAPPPIAPPLVQPSPPVARAAPVSETVPVHPLPQGEVQGLPPPPPPPPLPPPGIRPSSPVTVTALAHPPSGLHPTPSTAPGPHVPLMPPSPPSQVIPASEPKRHPSCLPVISDEEQREQEAKHERIENDVATILSRRIAVEYSDSEDDSEFDEVDWLE
modifications: Alexa488-maleimide on Cys490
Molecule B1 gave an equilibrium dissociation constant (Kd) of 425 nM.
